Results: FireProtDB (doi:10.1093/hmg/ddv370)

B1: Guanylyl cyclase-activating protein 1, P43080 (parent)
chain: MGNVMEGKSVEELSSTECHQWYKKFMTECPSGQLTLYEFRQFFGLKNLSPSASQYVEQMFETFDFNKDGYIDFMEYVAALSLVLKGKVEQKLRWYFKLYDVDGNGCIDRDELLTIIQAIRAINPCSDTTMTAEEFTDTVFSKIDVNGDGELSLEEFIEGVQKDQMLLDTLTRSLDLTRIVRRLQNGEQDEEGADEAAEAAG

Variants of: B1
Conditions: Homo sapiens; pH 7.5; Thermal; CD; Tris-HCl; KCl; transition: 2; whole UniProt chain shown

| Variant | change of melting temperature, mutant - wild type (higher = more stable) [°C] |
| --- | --- |
| MGNVMEGKSVEELSSTECHQWYKKFMTECPSGQLTLYEFRQFFGLKNLSPSASQYVEQMFETFDFNKDGYIDFMEYVAALSLVFKGKVEQKLRWYFKLYDVDGNGCIDRDELLTIIQAIRAINPCSDTTMTAEEFTDTVFSKIDVNGDGELSLEEFIEGVQKDQMLLDTLTRSLDLTRIVRRLQNGEQDEEGADEAAEAAG [L84F] | -9.3 |
| MGNVMEGKSVEELSSTECHQWYKKFMTECPSGQLTLYEFRQFFGLKNLSPSASQYVEQMFETFDFNKDGYIDFMEYVAALSLVLKGKVEQKLRWYFKLYDVDGNGCTDRDELLTIIQAIRAINPCSDTTMTAEEFTDTVFSKIDVNGDGELSLEEFIEGVQKDQMLLDTLTRSLDLTRIVRRLQNGEQDEEGADEAAEAAG [I107T] | -8.1 |

Same assay, conditions: Homo sapiens; pH 7.5; Thermal; CD; Tris-HCl; KCl; transition: 3; whole UniProt chain shown

| Variant | change of melting temperature, mutant - wild type (higher = more stable) [°C] |
| --- | --- |
| MGNVMEGKSVEELSSTECHQWYKKFMTECPSGQLTLYEFRQFFGLKNLSPSASQYVEQMFETFDFNKDGYIDFMEYVAALSLVLKGKVEQKLRWYFKLYDVDGNGCTDRDELLTIIQAIRAINPCSDTTMTAEEFTDTVFSKIDVNGDGELSLEEFIEGVQKDQMLLDTLTRSLDLTRIVRRLQNGEQDEEGADEAAEAAG [I107T] | -8.1 |
